Here are results for 1 molecule from paper PMC11494503 (2024).

In this assay the target is T1, cyclo-CLLFCL (head-to-tail cyclic peptide).
T1 chain: CLLFCL
Nature of the assay: microscale thermophoresis. On the technique in general: MST reads how a fluorescent partner responds to local heating, with and without ligand.

B1: HIF-1α PAS-B (protein)
chain: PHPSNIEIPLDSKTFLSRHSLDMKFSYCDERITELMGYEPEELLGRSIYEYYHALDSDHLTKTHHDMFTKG
One may read the Kd as the concentration at which binding is half-saturated. The molecule B1 registered a Kd of 470 nM.
